# Experimental data reported in US20140072613A1, “Compositions and Methods for Treating Cutaneous Scarring” (priority 2012, published 2014).
# Legend:
# Test in all cases: biochemical
# Assay type in all cases: biochemical
# [1] = molecular target: 266 human kinases (Homo sapiens, UniProt P22455); settings: FGFR4(h); 100 μM
# Method in brief: (§1)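 Read-out by scintillation counting of radiolabelled, positively charged substrate bound to negatively charged filter; activity normalised to 100% control. Phosphate transferred from radiolabelled ATP.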
# [2] = molecular target: T1, 266 human kinases (Homo sapiens, UniProt P51956); settings: NEK3(h); 100 μM
# T1 sequence (P51956 1-506): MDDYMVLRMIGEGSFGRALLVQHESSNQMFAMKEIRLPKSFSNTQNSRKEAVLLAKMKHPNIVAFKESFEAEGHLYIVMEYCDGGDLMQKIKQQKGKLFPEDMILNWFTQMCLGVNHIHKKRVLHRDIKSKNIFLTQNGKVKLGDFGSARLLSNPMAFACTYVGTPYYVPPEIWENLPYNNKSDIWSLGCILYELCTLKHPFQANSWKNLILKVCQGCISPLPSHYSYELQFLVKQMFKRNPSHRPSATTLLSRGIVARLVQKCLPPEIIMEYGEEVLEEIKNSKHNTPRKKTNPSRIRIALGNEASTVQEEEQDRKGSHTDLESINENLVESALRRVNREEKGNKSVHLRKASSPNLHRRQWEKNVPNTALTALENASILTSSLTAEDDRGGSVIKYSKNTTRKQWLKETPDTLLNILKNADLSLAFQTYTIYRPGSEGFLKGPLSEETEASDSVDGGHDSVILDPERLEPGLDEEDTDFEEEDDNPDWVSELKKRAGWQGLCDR
# Method in brief: as §1
# [3] = molecular target: 266 human kinases (Homo sapiens, UniProt O15530); settings: PDK1(h); 100 μM
# Sequence of 266 human kinases (Homo sapiens, UniProt O15530) (O15530 whole entry): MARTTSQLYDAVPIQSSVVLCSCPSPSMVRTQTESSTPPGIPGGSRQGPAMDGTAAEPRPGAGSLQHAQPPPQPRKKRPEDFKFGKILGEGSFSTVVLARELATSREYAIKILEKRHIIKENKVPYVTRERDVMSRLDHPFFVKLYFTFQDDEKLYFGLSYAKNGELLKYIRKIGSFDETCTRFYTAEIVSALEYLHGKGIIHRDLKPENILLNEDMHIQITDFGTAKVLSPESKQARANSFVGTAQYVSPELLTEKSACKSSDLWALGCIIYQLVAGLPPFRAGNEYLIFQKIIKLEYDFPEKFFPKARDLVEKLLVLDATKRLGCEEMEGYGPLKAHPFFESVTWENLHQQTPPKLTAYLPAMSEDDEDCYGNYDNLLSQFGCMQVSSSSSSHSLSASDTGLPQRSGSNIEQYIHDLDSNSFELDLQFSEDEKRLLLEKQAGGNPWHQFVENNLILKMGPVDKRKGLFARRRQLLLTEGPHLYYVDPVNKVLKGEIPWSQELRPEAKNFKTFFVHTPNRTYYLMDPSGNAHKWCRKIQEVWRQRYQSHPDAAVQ
# Method in brief: as §1
# [4] = molecular target: 266 human kinases (Homo sapiens, UniProt Q7KZI7); settings: PAR-1Bα(h); 100 μM
# Sequence of 266 human kinases (Homo sapiens, UniProt Q7KZI7) (Q7KZI7 whole entry): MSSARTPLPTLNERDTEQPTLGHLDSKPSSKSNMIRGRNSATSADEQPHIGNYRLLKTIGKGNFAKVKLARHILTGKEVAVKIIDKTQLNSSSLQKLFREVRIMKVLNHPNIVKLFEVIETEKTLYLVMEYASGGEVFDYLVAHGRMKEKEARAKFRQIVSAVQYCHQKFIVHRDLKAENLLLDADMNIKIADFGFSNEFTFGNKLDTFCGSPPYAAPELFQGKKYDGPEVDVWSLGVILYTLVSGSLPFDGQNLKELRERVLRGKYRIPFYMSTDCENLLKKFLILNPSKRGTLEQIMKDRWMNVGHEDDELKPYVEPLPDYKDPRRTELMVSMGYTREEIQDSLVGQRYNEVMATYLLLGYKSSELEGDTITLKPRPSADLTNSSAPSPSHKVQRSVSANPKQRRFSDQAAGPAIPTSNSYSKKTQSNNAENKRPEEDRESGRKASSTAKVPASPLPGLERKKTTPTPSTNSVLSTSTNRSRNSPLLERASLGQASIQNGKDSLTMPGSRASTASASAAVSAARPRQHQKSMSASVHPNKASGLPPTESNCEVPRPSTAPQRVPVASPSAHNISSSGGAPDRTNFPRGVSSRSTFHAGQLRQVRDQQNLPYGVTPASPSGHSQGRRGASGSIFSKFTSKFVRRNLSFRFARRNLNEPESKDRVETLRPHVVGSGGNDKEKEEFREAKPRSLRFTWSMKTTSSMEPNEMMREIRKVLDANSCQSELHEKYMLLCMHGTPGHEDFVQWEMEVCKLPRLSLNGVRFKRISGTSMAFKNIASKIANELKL
# Method in brief: as §1
# [5] = molecular target: 266 human kinases (Homo sapiens, UniProt P17948); settings: Flt1(h); 100 μM
# Sequence of 266 human kinases (Homo sapiens, UniProt P17948) (P17948 27-1338): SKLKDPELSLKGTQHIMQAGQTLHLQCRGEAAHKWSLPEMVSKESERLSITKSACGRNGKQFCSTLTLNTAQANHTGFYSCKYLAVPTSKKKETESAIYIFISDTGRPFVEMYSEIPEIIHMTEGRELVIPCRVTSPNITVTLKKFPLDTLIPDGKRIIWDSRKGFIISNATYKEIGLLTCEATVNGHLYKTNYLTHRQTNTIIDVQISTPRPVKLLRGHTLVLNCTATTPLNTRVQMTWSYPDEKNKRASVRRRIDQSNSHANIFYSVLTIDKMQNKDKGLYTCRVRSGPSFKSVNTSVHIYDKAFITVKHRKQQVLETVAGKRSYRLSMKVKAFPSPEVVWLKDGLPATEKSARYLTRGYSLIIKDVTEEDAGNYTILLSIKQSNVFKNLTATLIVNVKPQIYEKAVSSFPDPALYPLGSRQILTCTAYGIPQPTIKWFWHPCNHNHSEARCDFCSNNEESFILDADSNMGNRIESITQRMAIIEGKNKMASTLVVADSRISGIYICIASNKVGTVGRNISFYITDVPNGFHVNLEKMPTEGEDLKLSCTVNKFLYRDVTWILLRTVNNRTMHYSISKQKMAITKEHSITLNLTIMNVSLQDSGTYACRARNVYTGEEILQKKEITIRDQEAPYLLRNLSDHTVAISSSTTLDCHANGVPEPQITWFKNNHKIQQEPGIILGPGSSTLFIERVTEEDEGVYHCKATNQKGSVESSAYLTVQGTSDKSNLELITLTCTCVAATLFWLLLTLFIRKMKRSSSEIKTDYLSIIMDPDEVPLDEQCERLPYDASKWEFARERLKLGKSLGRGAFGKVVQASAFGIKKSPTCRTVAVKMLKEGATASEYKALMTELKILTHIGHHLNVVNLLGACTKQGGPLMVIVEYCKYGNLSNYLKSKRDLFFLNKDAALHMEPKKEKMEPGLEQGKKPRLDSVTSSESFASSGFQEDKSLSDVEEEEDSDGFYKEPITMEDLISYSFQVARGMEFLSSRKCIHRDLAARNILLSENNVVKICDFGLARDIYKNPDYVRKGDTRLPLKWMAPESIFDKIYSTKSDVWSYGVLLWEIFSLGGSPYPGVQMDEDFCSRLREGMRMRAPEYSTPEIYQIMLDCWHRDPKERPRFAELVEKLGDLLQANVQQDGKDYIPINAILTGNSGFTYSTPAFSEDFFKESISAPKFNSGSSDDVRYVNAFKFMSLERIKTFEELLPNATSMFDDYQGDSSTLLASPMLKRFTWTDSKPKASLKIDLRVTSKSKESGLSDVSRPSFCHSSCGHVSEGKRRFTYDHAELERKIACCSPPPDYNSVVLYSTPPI
# Method in brief: as §1
# [6] = molecular target: 266 human kinases (Homo sapiens, UniProt O43353); settings: RIPK2(h); 100 μM
# Sequence of 266 human kinases (Homo sapiens, UniProt O43353) (O43353 whole entry): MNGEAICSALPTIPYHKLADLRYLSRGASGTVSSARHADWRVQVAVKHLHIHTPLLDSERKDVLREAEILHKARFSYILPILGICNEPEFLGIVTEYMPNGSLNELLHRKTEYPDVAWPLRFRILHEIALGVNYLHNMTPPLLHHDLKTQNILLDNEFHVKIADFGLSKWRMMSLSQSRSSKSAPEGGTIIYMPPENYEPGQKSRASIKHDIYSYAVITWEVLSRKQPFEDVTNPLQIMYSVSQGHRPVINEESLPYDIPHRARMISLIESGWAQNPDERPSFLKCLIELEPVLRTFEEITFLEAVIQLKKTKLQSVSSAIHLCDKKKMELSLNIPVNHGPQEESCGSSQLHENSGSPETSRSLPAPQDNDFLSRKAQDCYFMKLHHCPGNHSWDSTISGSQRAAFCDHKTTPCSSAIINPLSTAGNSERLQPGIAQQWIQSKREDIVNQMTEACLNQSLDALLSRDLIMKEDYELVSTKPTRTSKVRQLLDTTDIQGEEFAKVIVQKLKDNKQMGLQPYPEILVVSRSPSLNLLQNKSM
# Method in brief: as §1
# [7] = molecular target: 266 human kinases (Homo sapiens, UniProt Q16566); settings: CaMKIV(h); 100 μM
# Sequence of 266 human kinases (Homo sapiens, UniProt Q16566) (Q16566 whole entry): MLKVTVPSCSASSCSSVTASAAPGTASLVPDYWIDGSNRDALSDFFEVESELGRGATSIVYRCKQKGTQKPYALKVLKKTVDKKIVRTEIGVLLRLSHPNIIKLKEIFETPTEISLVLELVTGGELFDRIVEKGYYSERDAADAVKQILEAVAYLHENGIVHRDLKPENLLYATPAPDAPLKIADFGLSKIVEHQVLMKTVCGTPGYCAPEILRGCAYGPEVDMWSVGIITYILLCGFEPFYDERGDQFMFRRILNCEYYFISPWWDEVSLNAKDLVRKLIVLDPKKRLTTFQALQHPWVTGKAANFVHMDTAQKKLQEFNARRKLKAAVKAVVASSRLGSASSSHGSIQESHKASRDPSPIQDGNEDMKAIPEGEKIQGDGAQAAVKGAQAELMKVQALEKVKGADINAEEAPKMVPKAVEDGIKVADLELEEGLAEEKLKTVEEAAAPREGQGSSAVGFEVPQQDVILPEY
# Method in brief: as §1
# [8] = molecular target: 266 human kinases (Homo sapiens, UniProt P54646); settings: AMPKα2(h); 100 μM
# Sequence of 266 human kinases (Homo sapiens, UniProt P54646) (P54646 whole entry): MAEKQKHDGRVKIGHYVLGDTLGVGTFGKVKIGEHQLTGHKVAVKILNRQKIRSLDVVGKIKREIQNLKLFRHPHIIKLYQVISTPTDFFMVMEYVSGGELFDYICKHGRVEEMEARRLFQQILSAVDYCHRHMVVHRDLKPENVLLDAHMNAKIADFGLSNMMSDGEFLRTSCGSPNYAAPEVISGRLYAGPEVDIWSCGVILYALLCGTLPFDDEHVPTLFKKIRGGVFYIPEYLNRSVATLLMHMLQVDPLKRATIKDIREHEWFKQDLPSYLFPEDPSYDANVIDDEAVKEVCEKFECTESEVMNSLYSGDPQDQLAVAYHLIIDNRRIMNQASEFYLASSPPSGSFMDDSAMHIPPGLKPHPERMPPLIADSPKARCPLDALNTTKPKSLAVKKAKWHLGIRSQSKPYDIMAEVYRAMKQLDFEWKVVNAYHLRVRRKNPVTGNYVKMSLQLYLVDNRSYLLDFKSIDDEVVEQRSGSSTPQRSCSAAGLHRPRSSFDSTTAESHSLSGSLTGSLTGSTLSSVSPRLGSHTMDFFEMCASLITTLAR
# Method in brief: as §1
# [9] = molecular target: T2, 266 human kinases (Homo sapiens, UniProt P54762); settings: EphB1(h); 100 μM
# T2 sequence (P54762 18-984): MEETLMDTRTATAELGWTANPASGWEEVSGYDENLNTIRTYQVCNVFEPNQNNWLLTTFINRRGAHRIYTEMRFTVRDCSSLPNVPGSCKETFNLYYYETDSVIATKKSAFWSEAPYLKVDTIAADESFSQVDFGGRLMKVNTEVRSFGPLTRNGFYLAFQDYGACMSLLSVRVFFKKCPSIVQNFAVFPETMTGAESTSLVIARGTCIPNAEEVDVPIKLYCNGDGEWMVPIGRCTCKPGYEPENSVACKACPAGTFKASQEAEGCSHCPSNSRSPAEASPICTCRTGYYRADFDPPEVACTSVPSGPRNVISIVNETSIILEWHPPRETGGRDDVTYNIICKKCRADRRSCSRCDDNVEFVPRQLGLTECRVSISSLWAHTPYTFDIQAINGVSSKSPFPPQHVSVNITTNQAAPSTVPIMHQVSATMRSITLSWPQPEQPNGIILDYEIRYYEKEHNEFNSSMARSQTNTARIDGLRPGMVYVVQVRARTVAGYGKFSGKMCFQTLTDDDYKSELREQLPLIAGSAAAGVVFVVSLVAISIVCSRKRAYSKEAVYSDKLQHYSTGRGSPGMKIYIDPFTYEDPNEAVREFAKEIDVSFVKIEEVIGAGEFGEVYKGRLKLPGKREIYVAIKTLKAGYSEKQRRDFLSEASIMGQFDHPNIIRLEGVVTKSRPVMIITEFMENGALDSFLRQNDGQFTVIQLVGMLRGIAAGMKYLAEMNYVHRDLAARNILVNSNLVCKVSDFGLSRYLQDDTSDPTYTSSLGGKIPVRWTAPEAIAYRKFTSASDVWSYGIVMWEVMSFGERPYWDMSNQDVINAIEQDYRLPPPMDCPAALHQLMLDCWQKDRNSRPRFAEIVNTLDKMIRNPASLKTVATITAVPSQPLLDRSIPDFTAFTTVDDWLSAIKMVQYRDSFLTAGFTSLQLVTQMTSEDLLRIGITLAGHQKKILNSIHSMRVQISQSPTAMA
# Method in brief: as §1
# [10] = molecular target: 266 human kinases (Homo sapiens, UniProt P31751); settings: PKBβ(h); 100 μM
# Sequence of 266 human kinases (Homo sapiens, UniProt P31751) (P31751 whole entry): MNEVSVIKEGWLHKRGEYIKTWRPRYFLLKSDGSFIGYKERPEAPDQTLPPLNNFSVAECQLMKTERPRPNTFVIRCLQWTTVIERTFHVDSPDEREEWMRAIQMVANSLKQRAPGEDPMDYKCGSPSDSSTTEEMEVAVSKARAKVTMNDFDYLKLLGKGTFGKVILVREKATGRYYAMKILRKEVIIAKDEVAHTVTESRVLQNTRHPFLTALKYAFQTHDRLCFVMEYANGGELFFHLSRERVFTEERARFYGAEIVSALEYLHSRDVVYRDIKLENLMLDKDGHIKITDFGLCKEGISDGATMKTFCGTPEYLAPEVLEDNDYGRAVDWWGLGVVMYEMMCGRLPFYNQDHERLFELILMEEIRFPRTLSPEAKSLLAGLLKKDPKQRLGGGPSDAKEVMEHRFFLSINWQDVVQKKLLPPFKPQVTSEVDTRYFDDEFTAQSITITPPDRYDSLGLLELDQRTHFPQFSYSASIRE
# Method in brief: as §1
# [11] = molecular target: 266 human kinases (Homo sapiens, UniProt P10721, D816V); settings: cKit(D816V)(h); 100 μM
# Method in brief: as §1
# [12] = molecular target: 266 human kinases (Homo sapiens, UniProt P12931, T341M); settings: Src(T341M)(h); 100 μM
# Method in brief: as §1
# [13] = molecular target: 266 human kinases (Homo sapiens, UniProt Q86UE8); settings: TLK2(h); 100 μM
# Method in brief: as §1
# [14] = molecular target: 266 human kinases (Homo sapiens, UniProt Q00534); settings: CDK6/cyclinD3(h); 100 μM
# Sequence of 266 human kinases (Homo sapiens, UniProt Q00534) (Q00534 whole entry): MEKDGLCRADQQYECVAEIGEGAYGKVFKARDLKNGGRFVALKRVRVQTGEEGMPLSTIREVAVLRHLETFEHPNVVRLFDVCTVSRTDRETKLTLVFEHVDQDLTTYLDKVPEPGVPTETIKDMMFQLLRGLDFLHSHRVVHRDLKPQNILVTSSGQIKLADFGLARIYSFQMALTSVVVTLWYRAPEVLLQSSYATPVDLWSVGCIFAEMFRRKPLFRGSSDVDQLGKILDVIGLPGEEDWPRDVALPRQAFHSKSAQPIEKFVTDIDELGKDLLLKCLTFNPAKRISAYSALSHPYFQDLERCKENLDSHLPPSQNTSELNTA
# Method in brief: as §1
Sequence,% activity [1] [%],% activity [2] [%],% activity [3] [%],% activity [4] [%],% activity [5] [%],% activity [6] [%],% activity [7] [%],% activity [8] [%],% activity [9] [%],% activity [10] [%],% activity [11] [%],% activity [12] [%],% activity [13] [%],% activity [14] [%]
HRRIKAWLKKIKALARQLGVAA (mammal) [MMI-0500],3,20,178,97,27,30,-1,9,37,21,30,59,133,23
YARAAARQARAKALNRQLGVA (mammal) [MMI-0200],75,100,143,110,96,98,71,88,95,250,118,56,129,100
